Measured values from US20190135888A1 (Harvard, published 2019).

B1: CA33 (Rabbit Ab 909) (antibody, V domains shown)
VH: QSVEESGGRLVTPGTPLTLTCTVSGFSLSTYYMSWVRQAPGKGLEWIGIIYPSGSTYCASWAKGRFTISKASTTVDLKITSPTTEDTATYFCARPDNDGTSGYLSGFGLWGQGTLVTVSS
VL: DVVMTQTPASVSEPVGGTVTIKCQASEDISRYLVWYQQKPGQPPKRLIYKASTLASGVPSRFKGSGSGTDFTLTISDLECDDAATYYCQCTYGTYAGSFFYSFGGGTEVVVE
notes: Rabbit variable regions; also called Rabbit Antibody 909; antibody 909
B2: GCGR extracellular domain (GCGR-ecd) (receptor, UniProt P47871 26-136, looked up)
chain: AQVMDFLFEKWKLYGDQCHHNLSLLPPPTELVCNRTFDKYSCWPDTPANTTANISCPWYLPWHHKVQHRFVFKRCGPDGQWVRGPRGQPWRDASQCQMDGEEIEVQKEVAK
notes: extracellular domain; also called glucagon receptor extracellular domain; not shown: Hexahistidine and WELQ protease site added during cloning; MST was run with tag and with
B3: aP2 (recombinant aP2 of Example 1) (other)
chain: MCDAFVGTWKLVSSENFDDYMKEVGVGFATRKVAGMAKPNMIISVNGDLVTIRSESTFKNTEISFKLGVEFDEITADDRKVKSIITLDGGALVQVQKWDGKSTTIKRKRDGDKLVVECVMKGVTSTRVYERA
notes: Used unlabelled, and amine-biotinylated in the scintillation proximity assay; also called FABP4
B4: human aP2 (fatty acid-binding protein, adipocyte, FABP4/aP2, Homo sapiens) (other)
chain: CDAFVGTWKLVSSENFDDYMKEVGVGFATRKVAGMAKPNMIISVNGDVITIKSESTFKNTEISFILGQEFDEVTADDRKVKSTITLDGGVLVHVQKWDGKSTTIKRKREDDKLVVECVMKGVTSTRVYERA
notes: Biotinylated with Sulfo-NHS-LC-Biotin for the Octet cross-reactivity assay; also called haP2; hFABP4

Experiments:
[1] = biological target: T1, hFABP5/hMal1 (recombinant human FABP5, Sino Biological Inc.) (human, UniProt Q01469 1-135, limits assumed); assay: Octet RED384, biotinylated human FABP on streptavidin biosensors, antibody at 800 nM
T1 construct: Biotinylated with Sulfo-NHS-LC-Biotin and loaded on streptavidin biosensors; also called FABP5/Mal1; Mal1/FABP5
T1 sequence (Q01469 whole entry): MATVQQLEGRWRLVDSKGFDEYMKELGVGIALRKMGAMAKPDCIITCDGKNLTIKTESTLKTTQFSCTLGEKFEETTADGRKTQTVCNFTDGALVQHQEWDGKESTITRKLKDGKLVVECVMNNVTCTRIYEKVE
Experimental: The recombinant human proteins aP2 (generated at UCB in E. coli (see method below)), hFABP3 (Sino Biological Inc.) and hFABP5/hMall (Sino Biological Inc.) were biotinylated in a 5-fold molar excess of EZ-Link® Sulfo-NHS-LC-Biotin (Thermo Fisher Scientific) and purified from unbound biotin using a Zeba desalting column (Thermo Fisher Scientific). All binding studies were performed at 25° C. using a ForteBio Octet RED384 system (Pall ForteBio Corp.). […] Biosensors were then transferred back to PBS-T for 5 min. to measure dissociation. Non-specific binding of antibodies was monitored using unloaded biosensor tips.

[2] = biological target: B4; assay: Biacore T200, anti-aP2 IgG captured on anti-mouse IgG Fc, aP2 titrated over it; steady-state fit for CA33
[3] = biological target: glucagon/aP2 complex (glucagon plus aP2, Example 1) (Mus musculus (Mouse), UniProt P04117 1-132, limits assumed); assay: BLI (BLItz): GCGR-ecd on biotin-glucagon immobilized on streptavidin sensors, in the presence of aP2
[4] = biological target: B2; assay: binding curve, Response (ΔFnorm [‰]) against Ligand Concentration [nM]; the table under the plot has no unit, nM is that of the axis; paragraph 390 names an Octet system; which partner is titrated is not given
[5] = biological target: B2; assay: binding curve, Response (ΔFnorm [‰]) against Ligand Concentration [nM]; table under the plot
glucagon [6] = biological target: T2, glucagon; assay: binding curve, Response (ΔFnorm [‰]) against Ligand Concentration [nM]; the table under the plot has no unit, nM is that of the axis; paragraph 390 names an Octet system; which partner is titrated is not given
T2 construct: This id is also used for the endogenous glucagon of mouse serum; also called biotin-glucagon; biotinylated glucagon
T2 sequence (peptide, as listed by the source): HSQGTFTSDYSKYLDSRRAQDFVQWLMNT

glucagon [7] = biological target: T2, glucagon; assay: binding curve, Response (ΔFnorm [‰]) against Ligand Concentration [nM]; table under the plot

Binder: B1
binding result [1]: no binding (tested: 800 nM)
Kd [2]: 2830 nM

Binder: B2
Kd [3]: 54.1 nM

Binder: B3
EC50 [4]: 327 nM
logEC50 [5]: 2.51

Binder: B4
EC50 (glucagon [6]): 20.3 nM
logEC50 (glucagon [7]): 1.31
